# In paper PMC6821171, “LYAR potentiates rRNA synthesis by recruiting BRD2/4 and the MYST-type acetyltransferase KAT7 to rDNA” (Nucleic Acids Research, 2019):
# Biological target: T1, peptide LYAR_(175-219) (human, UniProt Q9NX58 175-219)
# T1 construct: LYAR, human, residues 175-219
# Experiment: ITC; peptide BRD2 489-540 with peptide LYAR 175-219 (Supplementary Figure S5E)
# Details: both partners purified
binder,measurement,value
"peptide BRD2_(489-540) (peptide, UniProt P25440 489-540, looked up, Bromodomain-containing protein 2, human, residues 489-540) peptide: SSSEEEEEEDEEDEEEEESESSDSEEERAHRLAELQEQLRAVHEQLAALSQG",stoichiometry N,1
